Here are results for two molecules from PMC10602907 (2023).

What all share (assay): MST
The target of test [1] is T1, FgSreA, 6xHis-tagged recombinant protein (Fusarium graminearum PH-1).
Test [2] deals with T1, FgSreA, 6xHis-tagged recombinant protein. The source holds these as a separate data set.
Test [3] concerns the target FgHapX, 6xHis-tagged recombinant protein (Fusarium graminearum PH-1).

Read-outs that look alike come from different tables or passages of the source.

B1: FgSwc6, 6xHis-tagged recombinant protein (natural protein)
chain: MNNFGVIELASAKTTSAPGWAYVPDNTISRPTAPTNRKRARNVPGLTYSDLTARQDNKIRKEVEALDKDGGKDNTIPLPVKSGRVQGKHTPNVRKILQSQKTFGNHLDDFLAMQALVESNPAISRASGANSKRPSVSRKDTPSSSKPPPDEDTTMTDANLQPLLPEPSRSPPASHPGDYNPLLVSRVPDMPSDEELRRLLAHPPLNYGEATGTRDTKYPARSFCEVCGYWGRVRCMKCGTRVCALDCLEAHKEECVTRYGP
On to B1, for which the Kd in test [1] is 3.04 µM; in test [2], 398 µM.

B2: FgUbp8, 6xHis-tagged recombinant protein (natural protein)
chain: MSARPTTPASPKNVRVKSPVPGLPMFGCEHIQLLLSKNQEVMNSSITHYKLILRGIFDATPIVPQTSTLDGRPVTSLTSNYLCLQCPSTVTEEERLRHGTKKQHRFYVDSRSGCLYCQICDDYIWDPTLEELRVRKIGTGSFSGRKRKHDELFTGSFKDDPRFISSNTNTASCRANGLRGIYNAGATCYQNVVLQSFLHNPLLRNFYLSDGHQSSDCQVSHCLSCAMDDMFQDFYALETTNGYTAANILSGFWISEKKAFENLVTTKEQDAHEFFQFLAEELHERNGDGKKPEIGSEHSCNCIMHQTFYGKMQTTTTCQNCSGQSNSIQSFLDLSLGLDNVVQKKSKRTGQKKPTVSLQDCLDEEYIKYDKCEYRCNNCNGTQQAKRHTSIKRLPNVLSIQLKRFEYKHGRHDRAASKVDNEVKFPLQLNMMPYTNRIRNHDSRESLELERSCTYDLLSVVVHVGELDTGHYTSYCRVGDQWFKFNDHKVELASLSDVLGAQAYLLFYIIRSLA
On to B2, for which the dissociation constant Kd in test [3] stood at 1.9 µM.

A word on the Kd: it is a measure of binding affinity in units of concentration.
